≈ marks a conversion by molar mass, not a printed value.
Key:
[1] = cited from earlier work
[2] = target: F381L/V461A KIVD (Lactococcus lactis, UniProt A0A0B8QZ66, form not given/V461A); experiment: coupled enzymatic assay of KIVD decarboxylation activity; format: biochemical; settings: for kcat: substrate of V461A/F381L KIVD, 30° C., pH 6.8
Excerpt: (§1) Protein Expression and Purification. Both gene fragments encoding wild type and F381L/V461A KIVD were amplified from plasmid pZE_LeuABCDKA6 using primers hiskivd_tevfwd and hiskivd_bamrev. After digestion with BamHI, the gene fragments were inserted into expression plasmid pQE9 (Qiagen) to yield pQE_hiskivd_wt and pQE_hiskivd_FL. The ADH6 gene fragment was amplified from yeast genomic DNA using primers hisadh_tevfwd and hisadh_bamrev, digested with BamHI and inserted into pQE9 to generate pQE_hisadh6. Similarly, genes encoding G462D and G462D/S139G LeuA were amplified from plasmid pZE_LeuABCDKA6 using primers hisleua_tevfwd and hisleua_bamrev. After digestion with BamHI, the PCR products were ligated into pQE9 to create pQE_hisleua_GD and pQE_hisleua_GS. The resulting expression plasmids pQE_hiskivd_wt, pQE_hiskivd_FL, pQE_hisadh6, pQE_hisleua_GD and pQE_hisleua_GS were transformed into E. coli strain BL21(DE3) harboring pREP4 (Qiagen). Cells were inoculated from an overnight pre-culture at 1/100 dilution and grown in 200 ml 2XYT rich medium containing 50 mg/L ampicillin and 25 mg/L kanamycin. At an OD600 of 0.6, recombinant proteins were expressed by induction of the cell cultures with 0.1 mM IPTG, followed by incubation at 30° C. overnight. Cell pellets were lysed by sonication in a buffer containing 250 mM NaCl, 2 mM DTT, 5 mM imidazole, and 50 mM Tris pH 9.0. By applying a stepwise gradient of imidazole (up to 250 mM), enzymes were purified from crude cell lysates through Ni-NTA column chromatography. The fractions of highest purity were pooled and buffer-exchanged using Amicon Ultra centrifugal filters (Millipore). Storage buffer 1 ([…], pH 8.0, 1 mM MgSO4, and 20% glycerol) was used for LeuA and ADH6, and storage buffer 2 ([…], pH 8.0, 1 mM MgSO4, 0.2 mM ThDP, and 20% glycerol) was used for KIVD. The concentrated protein solutions were aliquoted (100 μl) into PCR tubes and flash frozen at −80° C. for long term storage.
(§2) Enzymatic Assay of KIVD. Substrate 2-ketoisovalerate (KIV) was purchased from Sigma-Aldrich, and (S)-2-keto-4-methylhexanoate (KHV) was custom synthesized by AsisChem. Inc. Protein concentration was determined by measuring UV absorbance at 280 nm. The decarboxylation activity of KIVD was measured at 30° C. using a coupled enzymatic assay method. Excess ADH6 was used to reduce aldehyde into alcohol, and concomitantly, cofactor NADPH was oxidized to NADP+. The assay mixture contained 0.2 mM NADPH, 0.1 μM ADH6 and 0.1-20 mM 2-keto acids in assay buffer (50 mM potassium phosphate buffer, pH 6.8, 1 mM MgSO4, 0.5 mM ThDP) with a total volume of 0.2 mL. The reactions were started by adding 2 μl KIVD (final concentration: for KIV, 20 nM wt KIVD, 200 nM F381L/V461A KIVD; for KHV, 50 nM both), and the consumption of NADPH was monitored at 340 nm (extinction coefficient, 6.22 mM^−1 cm^−1). Kinetic parameters (kcat and Km) were determined by fitting initial velocity data to the Michaelis-Menten equation using Origin.

[3] = target: wild type KIVD (Lactococcus lactis, UniProt A0A0B8QZ66); experiment: as above; format: biochemical; settings: for kcat: substrate of Wild type KIVD, 30° C., pH 6.8
Excerpt: as §1, §2

[4] = target: T1, G462D LeuA (Escherichia coli, UniProt P09151, G462D); experiment: measurement of LeuA activity (DTNB); format: biochemical, E. coli; settings: for kcat: substrate of G462D LeuA, 30° C., pH 8.0
T1 construct: His tag (pQE9 vector, Ni-NTA purified) (N); TEV protease site (ENLYFQG, encoded by the forward primer) (N); made in house; host or cells: E. coli BL21(DE3) harboring pREP4
T1 sequence (P09151 whole entry G462D): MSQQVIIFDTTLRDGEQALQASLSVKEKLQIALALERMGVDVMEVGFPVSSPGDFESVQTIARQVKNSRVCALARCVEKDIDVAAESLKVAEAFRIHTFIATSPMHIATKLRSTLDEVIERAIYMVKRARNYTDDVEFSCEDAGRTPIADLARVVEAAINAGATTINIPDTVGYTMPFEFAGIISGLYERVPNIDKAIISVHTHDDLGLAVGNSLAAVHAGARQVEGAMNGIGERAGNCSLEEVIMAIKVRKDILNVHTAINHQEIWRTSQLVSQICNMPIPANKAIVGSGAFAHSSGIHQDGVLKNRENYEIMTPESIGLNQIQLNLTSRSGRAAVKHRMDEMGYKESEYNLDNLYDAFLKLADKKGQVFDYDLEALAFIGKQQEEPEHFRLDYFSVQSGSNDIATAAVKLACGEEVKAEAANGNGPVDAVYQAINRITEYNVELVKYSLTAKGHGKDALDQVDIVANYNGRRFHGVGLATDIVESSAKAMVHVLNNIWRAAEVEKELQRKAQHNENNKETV
Excerpt: as §1
(§3) Measurement of LeuA activity. The assay mixture contained 100 mM KCl, 2 mM MgCl2, 1 mM acetyl-CoA, and 100 mM Tris pH 8.0 with a total volume of 100 μl. 100 nM G462D or G462D/S139G LeuA was reacted with 2-ketoisovalerate in a concentration range from 25 μM to 1 mM for 10 minutes at 30° C. While 4 μM G462D or 1.5 μM G462D/S139G LeuA was reacted with (S)-2-keto-3-methylvalerate in a concentration range from 50 μM to 2 mM for 30 minutes at 30° C. The reactions were stopped by adding 0.3 ml of ethanol. Then 0.2 ml of a fresh 1 mM solution of 5,5′-Dithio-Bis (2 Nitrobenzoic Acid) in 100 mM Tris buffer pH 8.0 was added, and the yellow color product was measured at 412 nm. The values obtained were corrected for unspecific hydrolysis by subtracting the absorbance of controlled samples without addition of 2-keto acids. A molar extinction coefficient of 13,600 M^−1 cm^−1 was used in the final calculations.

[5] = target: T2, G462D/S139G LeuA (Escherichia coli, UniProt P09151, G462D/S139G); experiment: measurement of LeuA activity (DTNB); format: biochemical, E. coli
T2 construct: His tag (pQE9 vector, Ni-NTA purified) (N); TEV protease site (ENLYFQG, encoded by the forward primer) (N); made in house; host or cells: E. coli BL21(DE3) harboring pREP4
T2 sequence (P09151 whole entry S139G/G462D): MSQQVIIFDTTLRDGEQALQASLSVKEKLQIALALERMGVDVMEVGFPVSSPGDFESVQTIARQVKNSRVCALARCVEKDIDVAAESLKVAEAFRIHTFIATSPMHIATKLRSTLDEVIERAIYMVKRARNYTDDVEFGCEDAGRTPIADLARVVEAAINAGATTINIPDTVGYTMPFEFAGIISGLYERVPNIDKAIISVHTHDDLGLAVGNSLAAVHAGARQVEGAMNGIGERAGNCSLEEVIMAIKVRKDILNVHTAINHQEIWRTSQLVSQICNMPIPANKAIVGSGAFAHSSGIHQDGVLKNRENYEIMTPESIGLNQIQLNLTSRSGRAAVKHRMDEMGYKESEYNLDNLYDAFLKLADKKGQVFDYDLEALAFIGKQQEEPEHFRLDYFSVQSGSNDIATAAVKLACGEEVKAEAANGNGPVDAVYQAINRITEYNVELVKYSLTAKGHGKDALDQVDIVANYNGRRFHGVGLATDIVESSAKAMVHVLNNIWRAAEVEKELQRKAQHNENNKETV
Excerpt: as §1, §3

[6] = tested on: CC[C@H](C)C(=O)C(=O)O; experiment: measurement of LeuA activity (DTNB); format: biochemical, E. coli; settings: 30° C., pH 8.0
Excerpt: as §1, §3

[7] = tested on: CC(C)C(=O)C(=O)O; experiment: measurement of LeuA activity (DTNB); format: biochemical, E. coli; settings: 30° C., pH 8.0
Excerpt: as §1, §3

[8] = substrate: CC(C)C(=O)C(=O)O; experiment: coupled enzymatic assay of KIVD decarboxylation activity; format: biochemical, Lactococcus lactis; settings: other: substrate of Wild type KIVD, 30° C., pH 6.8
Excerpt: as §1, §2

[9] = substrate: CC[C@H](C)CC(=O)C(=O)O; experiment: as above; format: biochemical, Lactococcus lactis; settings: other: substrate of Wild type KIVD, 30° C., pH 6.8
Excerpt: as §1, §2

[10] = other: substrate of G462D/S139G LeuA

## CCCCCO [1-Pentanol]
[1]
  water solubility: 23 mg/mL (≈ 261 mM)

## CCCCCCCO [1-heptanol]
[1]
  water solubility: 1.2 mg/mL (≈ 10.3 mM)

## CC(C)C(=O)C(=O)O [2-Ketoisovalerate]
[2]
  kcat: 2.7 ± 0.6 s⁻¹
[2]; listed as 2-ketoisovalerate
  kcat: 2.7 s⁻¹
[3]
  kcat: 38.3 s⁻¹
[4]
  kcat: 6.0 s⁻¹

## CC[C@H](C)C(=O)C(=O)O [(S)-2-keto-3-methylvalerate]
[4]; G462D LeuA
  kcat, fold less than that for 2-ketoisovalerate: 333 fold
[4]
  kcat: 0.018 s⁻¹
[5]; G462D/S139G versus G462D LeuA
  increase of kcat by the S139G mutation: 7 fold
[5]; substrate of G462D/S139G LeuA, 30° C., pH 8.0
  kcat: 0.12 s⁻¹

## CC[C@H](C)CC(=O)C(=O)O [(S)-2-keto-4-methylhexanoate]
[2]; F381L/V461A KIVD
  specificity constant kcat/Km relative to that towards 2-ketoisovalerate: 40 fold
[2]
  kcat: 3.0 ± 0.1 s⁻¹
[2]; listed as 2-keto-4-methylhexanoate
  kcat: 3.0 s⁻¹
[3]
  kcat: 10.8 s⁻¹
[3]; wild type KIVD
  specificity constant kcat/Km relative to that towards 2-ketoisovalerate: 4 fold

## G462D LeuA (Escherichia coli K-12; G462D)
[6]; other: substrate of G462D LeuA
  Km: 55 µM
  kcat: 0.018 ± 0.001 s⁻¹
  kcat/Km: 330 M⁻¹ s⁻¹
[7]; other: substrate of G462D LeuA
  Km: 182 µM
  kcat: 6.0 ± 0.3 s⁻¹
  kcat/Km: 33000 M⁻¹ s⁻¹

## G462D/S139G LeuA (Escherichia coli K-12; G462D/S139G)
[6]; [10]
  Km: 144 ± 13 µM
  kcat: 0.12 ± 0.02 s⁻¹
  kcat/Km: 830 M⁻¹ s⁻¹
[7]; [10]
  Km: 104 ± 5 µM
  kcat: 2.1 ± 0.1 s⁻¹
  kcat/Km: 20000 M⁻¹ s⁻¹

B1: wild type KIVD (Lactococcus lactis subsp. lactis) (protein)
chain: MYTVGDYLLDRLHELGIEEIFGVPGDYNLQFLDQIISRKDMKWVGNANELNASYMADGYARTKKAAAFLTTFGVGELSAVNGLAGSYAENLPVVEIVGSPTSKVQNEGKFVHHTLADGDFKHFMKMHEPVTAARTLLTAENATVEIDRVLSALLKERKPVYINLPVDVAAAKAEKPSLPLKKENSTSNTSDQEILNKIQESLKNAKKPIVITGHEIISFGLEKTVSQFISKTKLPITTLNFGKSSVDEALPSFLGIYNGKLSEPNLKEFVESADFILMLGVKLTDSSTGAFTHHLNENKMISLNIDEGKIFNESIQNFDFESLISSLLDLSEIEYKGKYIDKKQEDFVPSNALLSQDRLWQAVENLTQSNETIVAEQGTSFFGASSIFLKPKSHFIGQPLWGSIGYTFPAALGSQIADKESRHLLFIGDGSLQLTVQELGLAIREKINPICFIINNDGYTVEREIHGPNQSYNDIPMWNYSKLPESFGATEERVVSKIVRTENEFVSVMKEAQADPNRMYWIELILAKEDAPKVLKKMGKLFAEQNKS
[8]
  Km: 2200 µM
  kcat: 38.3 ± 9.8 s⁻¹
  kcat/Km: 17000 M⁻¹ s⁻¹
[9]
  Km: 140 µM
  kcat: 10.8 ± 0.3 s⁻¹
  kcat/Km: 77000 M⁻¹ s⁻¹
